Experiments:
[1] = system: tauro- (TCA, TCDCA) or glyco- (GCA, GCDCA) bile acids; assay: Deconjugation by E. coli C41-pLys expressing putative Turicibacter bsh genes (LC-MS); format: cell-based
Description: Control is E. coli with same expression vector but expressing non-bile-modifying gene. d, same as c, but with GCA and GCDCA instead of tauro-bile acids. e, Quantification of percent remaining (compared to media controls) of conjugated bile acid (TCA, TCDCA, GCA, GCDCA) after 24 h growth with E. coli expressing the noted Turicibacter bsh gene. n=3 independent cultures, *p<0.05, **p<0.005, ***p<0.0005 using one sample t-test comparison with 100% remaining. BSH nomenclature indicates homolog group (e.g. III) and isolate of origin (e.g. MOL361).
Conjugation increases bile acid solubility and emulsification ability^45, while deconjugation reverses these effects, leading to decreased dietary lipid absorption. To identify Turicibacter bile salt hydrolase (bsh) genes responsible for the strain-specific differences in bile deconjugation, the study first searched our assembled genomes for annotations of “choloylglycine hydrolase,” the broad category that includes these genes. […] Isolates within the same phylogenetic and phenotypic subgroups largely shared similar sequences (FIG. 11a, b). To assay the function of the strain-specific putative bsh genes, the study cloned and individually expressed one representative sequence from each of the eight putative choloylglycine hydrolase groups in E. coli C41-pLys and measured the ability of these engineered bacteria to perform the deconjugations the study observed in the native Turicibacter. The study cultured the individual E. coli strains to stationary phase in the presence of two tauro-(TCA, TCDCA) or glyco-(GCA, GCDCA) bile acids, then measured their ability to deconjugate these bile acid pools. […] Collectively, these findings reveal that Turicibacter strains contain a range of bile salt hydrolases with deconjugation preferences for different bile acids.
For bile species quantification, an internal spike-in standard of 100 mM chenodeoxycholic acid-D4 (CDCA-D4, Sigma) was added to initial culture supernatants as a normalization reference. Area under the curve from reconstructed ion chromatograms was used to quantify the abundances of each species.

CA, CDCA, and DCA = settings: expressed in E. coli C41-pLys
Description: Escherichia coli C41-pLys (Lucigen) was used for characterizing putative bile modification genes, which were expressed off the pET21+plasmid. E. coli was grown acrobically shaking at 37° C. C in Luria Broth (LB, 1% NaCl, 1% tryptone, 0.5% yeast extract) supplemented with 100 μg mL^−1 ampicillin. Expression of genes was induced by addition of 100 μM IPTG.
In vitro characterization of bile transformations by engineered E. coli or B. thetaiotaomicron strains were performed by growing cells in respective media conditions described above supplemented with 0.5 mM (total combined concentration) of the noted bile species. Cells were grown to stationary phase (shaking at 37° C.), then frozen at −80° C. until further processing. Cells were then thawed, pelleted (5 minutes at 16,000×g), and the supernatant was removed to a new microcentrifuge tube. Three volumes of methanol was added, then the mixture was vigorously mixed for 30-60 seconds and incubated (room temperature, 15 minutes). Mixtures were centrifuged (5 minutes, 16,000×g), the supernatant removed to a clean microcentrifuge tube and dried in a vacuum concentrator. The dried residue was treated with methanol/water/formic acid (50/50/0.1, all by volume) then vigorously mixed and centrifuged as described above. […] The effluent from the column was passed through an electrospray ion source (capillary voltage 42V, capillary temperature 275° C., sheath gas flow 15 L min^−1, spray voltage 5 kV, and −15 kV conversion dynode with −1.2 k V multipliers) connected to a linear ion trap mass spectrometer (Thermo LTQ) scanning from m/z 95-1000 in the positive ion mode. Spectra were recorded and analyzed with instrument-manufacturer supplied software. Confirmation of proposed elemental compositions was achieved using the same chromatography and ion source configuration with the spectra recorded by scanning on an orbitrap mass spectrometer (Thermo LTQ XL).

[2] = expressed in E. coli C41-pLys, grown with two tauro- (TCA, TCDCA) or glyco- (GCA, GCDCA) bile acids

Molecule	bile salt hydrolase (deconjugation) activity [1, 2]	also measured
BSH (group IV): bile salt hydrolase group IV from Turicibacter sanguinis MOL361, SEQ ID NO: 4 (protein, listed as Turicibacter sanguinis) MCTALSLTAKDGSHLFGRNMDIEYSFNQSILLTPRRFDYKNRATGEMNQTKYAIIGMGTIIDEHPCYAELFNEKGLAAAGLNFPNYAHWDEKAIEGKTNIPPYDLVLWVTSNFETVKEVKEALKDVVLVDVPVNEQTPIAPLHWMICDKTGESIVVEKTVNGLSVMDNKVGVLTNAPTFDWHLTNLTQYMGLTSTQPKDITLGEQELHPLGQGLGAFSLPGDYSSPSRFVKAAFLRNNIDYANVNYSGISEFFHILNGVAMVRGSVVTPQHLNDITLYTSCMDQERGIYYYNTYTNHTISSINMHNEDLDAKEIKSFKFNDEFAVNLQN	tauro-specific	
BSH (group II): bile salt hydrolase group II from Turicibacter sanguinis H121, SEQ ID NO: 2 (protein, listed as Turicibacter sanguinis) MCTGLSLTTKDGKHFFGRNLDVPASYGQSVHIIPRNFNWLNVVNGETLASKYACIGMGIVVDNHPLLFDAVNEKGLAGGGLNFTHFAKFNENAIDGKINISASDFVYWALSNFADLNELRQALENLVLTNIPFEHELPVAGLHWMFTDLSGRSIVIENMADGMHIHENPVGVLTNDPTFDWHLTNLRQYVTLEKATPAPKQMGDLLLHPYGHGLGMCGIPGDASPAARFVRTVFFRDSIVEANDEISGVTAFLNVLTGVTVIKGSEVDPDGSMNYTVYKSAMCQESGTYYYTDYYNRRINAVKLSNANLDSKEITSFPYQGEQDILFQN	activity on TCDCA and GCDCA	bile salt hydrolase (deconjugation) activity ([1]; expressed in E. coli, presented with the combined four bile acids): blunted
BSH (group I): bile salt hydrolase group I from Turicibacter sanguinis MOL361, SEQ ID NO: 1 (protein, listed as Turicibacter sanguinis) MCTGLSLVTKDNKHLFGRNLDVPATYGQAVHIVPRNYDWFNIVSDETYTSKYACIGMGIVVDRLPLLFDAVNEKGLAGAGLNFTHFAKFNEKAVDGKTNISGSTFLYWALSNFSNLDELKEALKQLIITNIPVKEGLPVAGLHWMFTDLSGKSIVIEYMEDGMHVYDNPVGALTNDPTFPWHLTNLCQYVTLDTKTPAPKQFGEYVAKPFGHGLNMCGIPGDASPAARFVRTVYFRDTVVEADDEVSGVSAFFQVLTGVTVIKGSEIDPNGDMNYTVYKSCMCQESGTYYYTDYKNRRISAVCLSKADLDGKEIISFEYQGKQDILFQN	deconjugates both glyco- and tauro-conjugates	
7α-HSDH homolog from MOL361: 7-alpha hydroxysteroid dehydrogenase homolog of MOL361, locus tag HLK68_RS02750, SEQ ID NO: 9, expressed in E. coli C41-pLys (protein, listed as Turicibacter sanguinis) MRKLENAIALVTSSTRGIGLACAKKLASEGAIVYMGVRRLEVTQEICDEVAKEGLKMKPVFFDAYNIDSYETMVEEVIREQGKIDILVNNFGTGRPEVDLDLVSGDEKAFFDILEANIGSVYRISKLVIPHMIKQGKGSIVNISSIGGTVPDISRIGYGVSKAGVNNITQQIAMQYARYNIRCNAVLPGLTATDAALDNMPEQFIKSFLSHVPLNRMGTPEDMANAVLFFASDDSSYVTGDIMEVSGGYHLGTPQYADFVGRKVVEEK		dehydrogenation of CA (CA, CDCA, and DCA; grown in CA): removed the mass equivalent of two hydrogens from CA; dehydrogenation of CDCA (CA, CDCA, and DCA; grown in CDCA): Background transformation by E. coli prevented clear evidence of CDCA dehydrogenation; dehydrogenation of DCA (CA, CDCA, and DCA; grown in DCA): did not act on DCA
BSH (group III): bile salt hydrolase group III from Turicibacter sanguinis 1E2, SEQ ID NO: 3 (protein, listed as Turicibacter sanguinis) MCTGLCLSTKDGKHLFGRNLDVPASYNQAVQIVPRNFKWLNVATQETITSKYACIAMGIVIDNHPLLFDGVNEKGLAGGGLNFTHFAKFSSTAVKDKISLSASDFVYWVLSTFSSLSELKETLPSVILTSIPFKPDLPVAGLHWIFTDKTGESIVIEYMEDGMHIHDNPVGVLTNDPTFDWQLTNLSQYVTLSCKTPQPEEMGNLLVKPFGHGLGMCGIPGDGSPAARFVRTVFFRDAVVGADDEISGVTAFFNVLSEVTVMKGSEIDPDGSMNFTVYKSAMCQESQTYYYTDYYNRRINAVKLTPDTMNADHITTFPYLGKQDICYQN	moderate activity on TCDCA	
